According to patent publication US20230047413A1 (Janssen / Centocor, published 2023):

What was measured:
[1] = target: T1, PHF-tau (paired helical filament tau isolated from Alzheimer's disease brain) (human, UniProt P10636-8 2-441, limits assumed, hyper-phosphorylated, aggregated; sites not listed for the preparation); test: SPR ProteOn, PHF-tau capture-coupled via HT7, bivalent model
T1 construct: also called enriched PHF-tau; ePHF-tau
Method: (§1) A subset of HFA-PT3 monoclonal antibodies was tested for binding to PHF-tau isolated from Alzheimer's disease brain. All interactions were studied at 25° C. using PBS pH 7.4, supplemented with 3 mM EDTA, and 0.005% Tween 20 as running or system buffer. HT7 (Pierce, catalog #MN1000), a mouse anti-tau antibody, was used as a positive control.
(§2) The interaction of anti-tau monoclonal antibodies with PHF-tau was analyzed by ProteOn using a biosensor surface prepared by capture-coupling PHF-tau using HT7 as the capture reagent. PHF-tau was prepared by 2-times centrifugation at 5000×g at 5° C. for 10 min; the supernatant from the second centrifugation was then diluted 1/40 in running buffer. To prepare the chip, HT7 was covalently immobilized to the surface of a GLC (ProteOn) sensor chip using the manufacturer's instructions for amine-coupling chemistry (˜5000 response units (RU)). The coupling buffer was 10 mM sodium acetate, pH 4.5. After HT7 immobilization, PHF-tau was injected and captured (˜300 RU) by HT7. After capture, PHF-tau was covalently immobilized to the sensor chip by activation of the chip using the manufacturer's instructions for amine-coupling chemistry. Remaining reactive sites were blocked by the injection of ethanolamine. After preparation and stabilization of the PHF-tau-modified surface and reference surface (containing no antigen), the anti-tau antibodies were diluted in the running buffer and injected in solution (0.12-75 nM in 5-fold dilutions). The association was monitored for 3 minutes (120 μL injected at 40 μL/min). The dissociation was monitored for 15 minutes. Regeneration of the sensor surface was performed using 10 mM Gly pH 2.0. The data for monoclonal antibodies were fit using a bivalent binding model where the apparent affinity (KD) was reported as the ratio of koff/kₒₙ. A Langmuir 1:1 binding model was used for kinetics analysis of Fabs.

Peptide-2 [2] = target: T2, Peptide-2 (human, phosphothreonine 212, phosphothreonine 217 (tau 2N4R numbering); short chain biotin (SCBiot) and dPEG4 at the N-terminus; amide at the C-terminus); test: SPR ProteOn, mAb captured, peptide as analyte
T2 construct: also called pT212/pT217-tau peptide (Peptide-2)
T2 sequence (peptide, as listed by the source): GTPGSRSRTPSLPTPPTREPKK
Method: (§3) A subset of HFA-PT3 monoclonal antibody variants, selected based on biophysical characterization and ELISA binding to PHF, were analyzed by Surface Plasmon Resonance (SPR) with a ProteOn XPR36 for binding to the following phosphopeptides: pT212/pT217-tau peptide (Peptide-2, SEQ ID NO: 48) and pT212-tau peptide (Peptide-8, SEQ ID NO: 54). All experiments were performed at 25° C. using PBST, pH 7.4, (Bio-Rad Cat#176-2720) as both running buffer and sample dilution buffer.
(§4) Monoclonal antibody/Peptide binding. […] Anti-human IgG was amine-coupled to the chip surface using EDC/NHS, then washed with ethanolamine. Antibodies were diluted to 2 μg/mL in PBST and injected on the surface for 5 min at 30 μL/min to achieve a maximum density of 900-1000 RU. Peptides were injected as analytes at 60 μL/min for 3 min, followed by 5 min dissociation. Peptide-2 was diluted in PBST to generate a three-fold concentration series (0-30 nM) and measured in duplicate. Single measurements of monoclonal antibody binding to Peptide-8 were recorded over the concentration range 0-100 nM.
(§5) Data were double referenced by subtraction of the interspot response, and the curves generated by the buffer only injection. The chip surface was regenerated with 0.85% phosphoric acid, followed by PBST injection before the next antibody titration injection. Data processing and analysis were performed using instrument software. The data were fit using a simple Langmuir 1:1 binding model.

Peptide-2 [3] = target: T2, Peptide-2; test: SPR ProteOn, mAb captured, peptide as analyte; range of n=2
Method: as §3, §4, §5

Peptide-8 [4] = target: T3, Peptide-8 (human, phosphothreonine 212 (tau 2N4R numbering); SCBiot and dPEG4 at the N-terminus; amide at the C-terminus); test: SPR ProteOn, mAb captured by anti-human Fc, peptide as analyte
T3 construct: also called pT212-tau peptide (Peptide-8)
Method: as §3, §4, §5

[5] = target: T4, tau phospho-peptide of the direct ELISA of Example 11; test: direct ELISA, peptide coated
T4 construct: also called pT217 peptide; pT212/pT217 peptide
Method: (§6) Binding to tau phospho-peptide was analysed by ELISA where peptide (10 ng/mL) was directly coated to the plate overnight. […] After incubation with antibodies, plates were washed and 50 μL per well of HRPO labelled anti-Fab antibody (Jackson Immunoresearch laboratories) (diluted 1:10000 in blocking buffer). After another washing step detection was performed with “One step” TMB (Thermo Scientific) according to the manufacturers' instructions. Plates were analysed in EnVision® 2102 Multilabel Reader (Perkin Elmer, Waltham, Mass., USA). Binding curves were generated using GraphPad Prism7.0 software.

[6] = target: T1, PHF-tau (paired helical filament tau …); test: SPR ProteOn, PHF-tau capture-coupled via HT7, bivalent model; remark: listed apart in the source
Method: Affinity matured monoclonal antibodies were tested for binding to PHF-tau isolated from Alzheimer's disease brain.
A GLC sensor chip was covalently immobilized with a mouse anti-tau antibody, HT7 (ThermoFisher, catalog# MN1000) using the vendor recommended protocol for amine-coupling chemistry (˜5000 response units, RU). The coupling buffer was 10 mM, pH 4.5 sodium acetate. PHF-tau was prepared by 2-times centrifugation at 5000×g in 5° C. for 10 min. […] After capture-coupling, the surface was activated and deactivated to generate a homogenous PHF-tau surface for antibody binding studies. The anti-tau antibodies and their Fabs (prepared in running buffer, 0.024-75 nM at 5-fold dilutions) were injected at 50 μL/min over the PHF-tau surface to measure binding. The association and dissociation profiles were monitored for 4 minutes and 2 hours, respectively. After dissociation, the sensor chip was regenerated using multiple injections of 10 mM Glycine pH 2.0 and the running buffer. A reference surface (without any PHF-tau) was used to monitor non-specific binding of the injected mAbs or Fabs. HT7 antibody was used as a positive control. The binding sensorgrams for mAbs were fit using a bivalent binding model where the apparent affinity or avidity-driven binding (KD) was reported as the ratio of off-rate and on-rate (koff/kₒₙ). A 1:1 Langmuir binding model was used for kinetics analysis of Fabs.

[7] = target: T4, tau phospho-peptide of the direct ELISA …; test: direct ELISA on plate-coated tau phospho-peptide (10 ng/mL), detection with HRPO-labelled anti-Fab antibody
Method: as §6

Peptide-2 [8] = target: T2, Peptide-2; test: SPR ProteOn, mAb captured, peptide as analyte; range of n=2; upper end of n=2 range
Method: as §3, §4, §5

Peptide-2 [9] = target: T2, Peptide-2; test: SPR ProteOn, peptide captured, Fab as analyte
Method: as §3
(§7) Fab/peptide binding. Biotinylated peptide was captured on a neutravidin-coated NLC biosensor chip pre-conditioned with PBST, and Fab was flowed over the surface to measure kinetic parameters. Approximately 5-10 RU of peptide was captured on the chip surface by diluting peptide to 10 ng/mL in PBST and injecting over the flow channels at 30 μL/min for 100 s. Serial dilutions of PT3 Fab (1.1 nM to 90 nM) were injected at 60 μL/min for 3 minutes (association phase), followed by 300 s of buffer only (dissociation phase).
as §5

[10] = target: T1, PHF-tau (paired helical filament tau …); test: SPR ProteOn, PHF-tau capture-coupled via HT7, 1:1 model
Method: as §1, §2

Peptide-2 [11] = target: T2, Peptide-2; test: SPR ProteOn, peptide captured, Fab as analyte; range of n=2
Method: as §3, §7, §5

[12] = target: T1, PHF-tau (paired helical filament tau …); test: SPR ProteOn, PHF-tau on chip
Peptide-2 [13] = target: T2, Peptide-2; test: SPR ProteOn, peptide captured, Fab as analyte; range of n=2; upper end of n=2 range
Method: as §3, §7, §5

Peptide-8 [14] = target: T3, Peptide-8; test: SPR ProteOn, mAb captured by anti-human Fc, peptide as analyte; poor data fit
Method: as §3, §4, §5

[15] = target: T1, PHF-tau (paired helical filament tau …); test: SPR ProteOn, PHF-tau

T1 sequence (P10636 other isoform, or with tags, fused parts or gaps limits assumed): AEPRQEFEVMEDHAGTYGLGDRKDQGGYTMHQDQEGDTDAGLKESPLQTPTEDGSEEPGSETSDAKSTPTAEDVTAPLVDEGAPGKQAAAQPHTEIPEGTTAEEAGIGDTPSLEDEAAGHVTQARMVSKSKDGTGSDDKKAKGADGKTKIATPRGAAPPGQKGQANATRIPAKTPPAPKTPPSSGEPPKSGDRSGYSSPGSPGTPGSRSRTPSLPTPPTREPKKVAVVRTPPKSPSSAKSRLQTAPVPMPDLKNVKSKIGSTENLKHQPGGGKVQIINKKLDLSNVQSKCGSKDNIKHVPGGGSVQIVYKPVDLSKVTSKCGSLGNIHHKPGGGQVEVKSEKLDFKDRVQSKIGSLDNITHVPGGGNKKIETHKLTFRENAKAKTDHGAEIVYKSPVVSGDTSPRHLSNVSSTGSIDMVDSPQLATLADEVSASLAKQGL

Kd [1] | koff [1] | kon [1] | Kd (Peptide-2 [2]) | koff (Peptide-2 [2]) | kon (Peptide-2 [2]) | Kd (Peptide-2 [3]) | koff (Peptide-2 [3]) | kon (Peptide-2 [3]) | EC50 [5] | Kd [6] | koff [6] | kon [6] | EC50 (read off the curve) [7] | koff (Peptide-2 [8]) | kon (Peptide-2 [8]) | Binder | also measured
0.027 nM | 2.93e-05 s⁻¹ | 1.07e+06 M⁻¹ s⁻¹ | 0.19 nM | 0.000826 s⁻¹ | 5e+06 M⁻¹ s⁻¹ | 0.125 to 0.255 nM | 0.000788 s⁻¹ | 3.1e+06 M⁻¹ s⁻¹ | 0.433 nM | 6.2 pM | 1.17e-05 s⁻¹ | 1.89e+06 M⁻¹ s⁻¹ | ~300 pM | 0.000863 s⁻¹ | 6.9e+06 M⁻¹ s⁻¹ | B296 (antibody, human IgG1, kappa, V domains shown, Humanized PT3, human IgG1/kappa; also called VH92/VL77; HFA-PT3) VH: QVQLVESGGGVVQPGRSLRLSCAASGFTFSSYAMSWVRQAPGKGLEWVASISKGGNTYYADSVKGRFTISRDNSKNTLYLQMNSLRAEDTAVYYCARGWGDYGWFAYWGQVTLVTVSS VL: DIQMTQSPSSLSASVGDRVTITCKASQDINRYLNWFQQKPGKAPKSLIYRANRLLDGVPSRFSGSGSGTDFTLTISSLQPEDFATYYCLQYDEFPLTFGQGTKLEIKR | Kd (Peptide-8 [4]): 26.8 nM; koff (Peptide-8 [4]): 0.023 s⁻¹; kon (Peptide-8 [4]): 856000 M⁻¹ s⁻¹
– | – | – | – | – | – | – | – | – | – | – | – | – | – | – | – | B326 (Fab of B252) (Fab, V domains shown, also called B252 Fab) VH: QVQLVESGGGLVKPGGSLRLSCAASGFTFSSYAMSWIRQAPGKGLEWVSSISKGGNTYYADSVKGRFTISRDNAKNSLYLQMNSLRAEDTAVYYCARGWGDYGWFAYWGQVTLVTVSS VL: DIVMTQTPLSSPVTLGQPASISCKASQDINRYLNWLQQRPGQPPRLLIYRANRLLDGVPDRFSGSGAGTDFTLKISRVEAEDVGVYYCLQYDEFPLTFGQGTKLEIK | Kd (Peptide-2 [9]): 0.493 nM; koff (Peptide-2 [9]): 0.000329 s⁻¹; kon (Peptide-2 [9]): 710000 M⁻¹ s⁻¹; Kd [10]: 0.224 nM; koff [10]: 0.00023 s⁻¹; kon [10]: 1.02e+06 M⁻¹ s⁻¹; Kd (Peptide-2 [11]): 0.387 to 0.599 nM; koff (Peptide-2 [11]): 0.000304 s⁻¹; kon (Peptide-2 [11]): 507000 M⁻¹ s⁻¹; fold weaker KD than the mouse PT3 parent Fab B187 [12]: 3.3 fold; koff (Peptide-2 [13]): 0.000353 s⁻¹; kon (Peptide-2 [13]): 912000 M⁻¹ s⁻¹
0.055 nM | 5.63e-05 s⁻¹ | 1.02e+06 M⁻¹ s⁻¹ | 0.769 nM | 0.00274 s⁻¹ | 4.71e+06 M⁻¹ s⁻¹ | 0.418 to 1.12 nM | 0.00246 s⁻¹ | 2.21e+06 M⁻¹ s⁻¹ | – | – | – | – | – | 0.00301 s⁻¹ | 7.2e+06 M⁻¹ s⁻¹ | B280 (antibody, human IgG1, V domains shown, Humanized (HFA) PT3 variant, human IgG1/kappa; also called VH91/VL80) VH: EVQLLESGGGLVQPGGSLRLSCAASGFTFSSYAMSWVRQAPGKGLEWVSSISKGGNTYYADSVKGRFTISRDNSKNTLYLQMNSLRAEDTAVYYCAKGWGDYGWFAYWGQVTLVTVSS VL: DIVMTQTPLSSPVTLGQPASISCKASQDINRYLNWLQQRPGQPPRLLIYRANRLLDGVPDRFSGSGAGTDFTLKISRVEAEDVGVYYCLQYDEFPLTFGQGTKLEIK | Kd (Peptide-8 [14]): 34.7 nM; koff (Peptide-8 [14]): 0.00757 s⁻¹; kon (Peptide-8 [14]): 218000 M⁻¹ s⁻¹
– | – | – | – | – | – | – | – | – | 0.0917 nM | 2 pM | 1.27e-05 s⁻¹ | 6.45e+06 M⁻¹ s⁻¹ | ~60 pM | – | – | B809 (antibody, human IgG1, kappa, V domains shown, also called PT1B809) VH: QVQLVESGGGVVQPGRSLRLSCAASGFTFTSYAMSWVRQAPGKGLEWVASITKGGNTYYADSVKGRFTISRDNSKNTLYLQMNSLRAEDTAVYYCARGWGIYGWFAYWGQVTLVTVSS VL: DIQMTQSPSSLSASVGDRVTITCKASQDINRYLNWFQQKPGKAPKSLIYRANRLLDGVPSRFSGSGSGTDFTLTISSLQPEDFATYYCLQYDEFPLTFGQGTKLEIKR | fold improvement in on-rate compared to the parent antibody (B296) [12]: 3 fold
– | – | – | – | – | – | – | – | – | – | – | – | – | – | – | – | PT1 mAb (hyb) (antibody, V domains shown) VH: QVQLQQSGTELMKPGASVKISCKATGYTFSSSWMGWVKQRPGHGLEWIGDILPGSGGTNYNERFKGKASFTAETSSNTAYMQLSSLTSEDSAVYYCVRSYYDYDRFANWGQGTLVTVSA VL: DIVMTQAAPSVPVTPGESVSISCRSSESLLHSNGNTYLYWFLQRPGQSPQLLIYRMSNLASGVPDRFSGSGSGTAFTLRISRVEAEDVGVYYCMQYLEYPLTFGAGTKLELK | Kd [15]: 0.322 nM; koff [15]: 6.47e-05 s⁻¹; kon [15]: 201000 M⁻¹ s⁻¹
